The results in this text go back to patent US20220090012A1 (CRISPR THERAPEUTICS, published 2022).

In this test the target is T1, recombinant biotinylated human BCMA (human, UniProt Q02223 1-54, biotinylated (site not stated); detected with streptavidin-APC).
T1 construct: Staining reagent; also called recombinant biotinylated BCMA/streptavidin-APC conjugate
T1 sequence (looked up): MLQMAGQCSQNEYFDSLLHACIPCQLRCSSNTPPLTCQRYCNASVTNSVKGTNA
In words: flow cytometry; edited T cells carrying the CAR stained with recombinant biotinylated human BCMA and streptavidin-APC. The source says:
Flowcytometry was used to verify the editing for TRAC, β2M and the insertion and expression of anti-BCMA CAR. Briefly, about one week post electroporation, cells were stained with anti-human TCR, anti-human β2M and recombinant biotinylated human BCMA/streptavidin-APC to assess the levels of editing for TRAC and β2M, and insertion of the nucleotide sequence encoding anti-BCMA CAR.
TRAC−/β2M−, TRAC−/β2M−/Reg-1−, TRAC−/β2M−/TGFBRII− and TRAC−/β2M−/Reg-1−/TGFBRII− anti-BCMA CAR+ T-cells show consistent rates of TCR and β2M disruptions at >90% and >60% rates, respectively as determined by flow cytometry (FIGS. 23A and 23B). Anti-BCMA CAR expression was measured flow cytometrically by determining the percentage of cells that bound recombinant biotinylated BCMA/streptavidin-APC conjugate. All the conditions including TRAC−/β2M−, TRAC−/β2M−/Reg-1−, TRAC−/β2M−/TGFBRII− and TRAC−/β2M−/Reg-1−/TGFBRII− anti-BCMA CAR+ T-cells show consistent rates of CAR insertion (>70%), while the unedited RNP− T-cells have no detectable staining for anti-BCMA CAR (FIG. 23C).

B1: anti-BCMA CAR (BCMA CAR amino acid sequence) (other)
chain: QVQLVQSGAELKKPGASVKVSCKASGNTLTNYVIHWVRQAPGQRLEWMGYILPYNDLTKYSQKFQGRVTITRDKSASTAYMELSSLRSEDTAVYYCTRWDWDGFFDPWGQGTTVTVSSGGGGSGGGGSGGGGSEIVMTQSPATLSVSPGERASISCRASQSLVHSNGNTHLHWYQQRPGQAPRLLIYSVSNRFSEVPARFSGSGSGTDFTLTISSVESEDFAVYYCSQTSHIPYTFGGGTKLEIKSAAAFVPVFLPAKPTTTPAPRPPTPAPTIASQPLSLRPEACRPAAGGAVHTRGLDFACDIYIWAPLAGTCGVLLLSLVITLYCNHRNRKRGRKKLLYIFKQPFMRPVQTTQEEDGCSCRFPEEEEGGCELRVKFSRSADAPAYQQGQNQLYNELNLGRREEYDVLDKRRGRDPEMGGKPRRKNPQEGLYNELQKDKMAEAYSEIGMKGERRRGKGHDGLYQGLSTATKDTYDALHMQALPPR
notes: also called anti-BCMA chimeric antigen receptor
For the molecule B1, the binding result is “binds”.
